# Experiments:
# HLA-A*01:01 = assay: IEDB peptide-MHC binding, purified MHC/direct/fluorescence; filed as Kd, often an IC50 or EC50 that approximates it; ≥ and ≤ were set here for values at or beyond the usual limits of such assays
# HLA-A*02:01 [1] = assay: as above
# HLA-A*03:01 = assay: as above
# HLA-A*11:01 = assay: as above
# HLA-A*29:02 [2] = assay: as above; conditions: source organism: West Nile virus
# HLA-A*31:01 = assay: as above
# HLA-A*69:01 [3] = assay: as above
# HLA-B*07:02 = assay: as above
# HLA-B*15:01 [4] = assay: as above
# HLA-B*15:09 = assay: as above
# HLA-B*18:01 [5] = assay: as above; conditions: source organism: West Nile virus
# HLA-B*27:05 = assay: as above
# HLA-B*39:01 [6] = assay: as above
# HLA-B*40:01 = assay: as above
# HLA-B*44:02 = assay: as above
# HLA-B*46:01 [7] = assay: as above
# HLA-B*48:01 = assay: as above
# HLA-B*57:01 [8] = assay: as above
# HLA-B*58:01 = assay: as above
# HLA-A*26:01 [9] = assay: as above
# HLA-B*08:01 = assay: as above
# HLA-B*35:01 = assay: as above
# HLA-A*68:02 = assay: as above; conditions: source organism: Vibrio vulnificus
# HLA-B*15:17 [10] = assay: as above; conditions: source organism: Vibrio vulnificus
# HLA-A*02:03 = assay: as above; conditions: source organism: Bacillus cereus G9842
# HLA-A*02:11 = assay: as above; conditions: source organism: Bacillus cereus G9842
# HLA-A*02:12 = assay: as above; conditions: source organism: Bacillus cereus G9842
# HLA-A*02:16 = assay: as above; conditions: source organism: Bacillus cereus G9842
# HLA-A*02:19 = assay: as above; conditions: source organism: Bacillus cereus G9842
# HLA-A*02:01 [11] = assay: IEDB peptide-MHC binding, purified MHC/competitive/fluorescence; filed as Kd, often an IC50 or EC50 that approximates it; ≥ and ≤ were set here for values at or beyond the usual limits of such assays
# HLA-A*26:01 [12] = assay: as above; conditions: source organism: Bacillus anthracis str. A0488
# HLA-B*15:17 [13] = assay: as above; conditions: source organism: Bacillus anthracis str. A0488
# HLA-B*18:01 [14] = assay: as above; conditions: source organism: Bacillus anthracis str. A0488
# HLA-B*27:03 = assay: as above; conditions: source organism: Bacillus anthracis str. A0488
# HLA-B*39:01 [15] = assay: as above
# HLA-B*46:01 [16] = assay: as above; conditions: source organism: Bacillus anthracis str. A0488
# HLA-B*51:01 = assay: as above; conditions: source organism: Bacillus anthracis str. A0488
# HLA-B*57:01 [17] = assay: as above; conditions: source organism: Bacillus anthracis str. A0488
# HLA-A*29:02 [18] = assay: as above; conditions: source organism: Cryptosporidium parvum Iowa II
# HLA-C*05:01 = assay: IEDB peptide-MHC binding, purified MHC/direct/fluorescence; filed as Kd, often an IC50 or EC50 that approximates it; ≥ and ≤ were set here for values at or beyond the usual limits of such assays; conditions: source organism: Vaccinia virus Copenhagen
# HLA-A*69:01 [19] = assay: IEDB peptide-MHC binding, purified MHC/competitive/fluorescence; filed as Kd, often an IC50 or EC50 that approximates it; ≥ and ≤ were set here for values at or beyond the usual limits of such assays; conditions: source organism: Vaccinia virus Copenhagen
# HLA-B*15:01 [20] = assay: as above; conditions: source organism: Vaccinia virus Copenhagen
# [21] = source organism: West Nile virus
# [22] = source organism: Vibrio cholerae
# [23] = source organism: Vibrio parahaemolyticus
# [24] = source organism: Vibrio vulnificus
# [25] = source organism: Vibrio vulnificus CMCP6
# [26] = source organism: Bacillus anthracis str. A0488
sequence,measurement,setting,value
AHYEEDVNL,Kd,HLA-A*01:01; [21],≥ 20 µM
same,Kd,HLA-A*02:01 [1]; [21],≥ 20 µM
same,Kd,HLA-A*03:01; [21],≥ 20 µM
same,Kd,HLA-A*11:01; [21],≥ 20 µM
same,Kd,HLA-A*29:02 [2],≥ 20 µM
same,Kd,HLA-A*31:01; [21],≥ 20 µM
same,Kd,HLA-A*69:01 [3]; [21],≥ 20 µM
same,Kd,HLA-B*07:02; [21],≥ 20 µM
same,Kd,HLA-B*15:01 [4]; [21],≥ 20 µM
same,Kd,HLA-B*15:09; [21],1800 nM
same,Kd,HLA-B*18:01 [5],≥ 20 µM
same,Kd,HLA-B*27:05; [21],≥ 20 µM
same,Kd,HLA-B*39:01 [6]; [21],1.71 µM
same,Kd,HLA-B*40:01; [21],≥ 20 µM
same,Kd,HLA-B*44:02; [21],≥ 20 µM
same,Kd,HLA-B*46:01 [7]; [21],≥ 20 µM
same,Kd,HLA-B*48:01; [21],≥ 20 µM
same,Kd,HLA-B*57:01 [8]; [21],≥ 20 µM
same,Kd,HLA-B*58:01; [21],≥ 20 µM
EGIEGRIAY,Kd,HLA-A*01:01; [22],≥ 20 µM
same,Kd,HLA-A*02:01 [1]; [22],≥ 20 µM
same,Kd,HLA-A*03:01; [22],≥ 20 µM
same,Kd,HLA-A*11:01; [22],≥ 20 µM
same,Kd,HLA-A*26:01 [9]; [22],8.61 nM
same,Kd,HLA-A*31:01; [22],≥ 20 µM
same,Kd,HLA-A*69:01 [3]; [22],≥ 20 µM
same,Kd,HLA-B*07:02; [22],≥ 20 µM
same,Kd,HLA-B*08:01; [22],≥ 20 µM
same,Kd,HLA-B*15:01 [4]; [22],0.306 µM
same,Kd,HLA-B*27:05; [22],≥ 20 µM
same,Kd,HLA-B*35:01; [22],15.9 nM
same,Kd,HLA-B*40:01; [22],≥ 20 µM
same,Kd,HLA-B*44:02; [22],≥ 20 µM
same,Kd,HLA-B*58:01; [22],≥ 20 µM
EVDEGSDMM,Kd,HLA-A*01:01; [23],4.3 µM
same,Kd,HLA-A*02:01 [1]; [23],≥ 20 µM
same,Kd,HLA-A*03:01; [23],≥ 20 µM
same,Kd,HLA-A*11:01; [23],≥ 20 µM
same,Kd,HLA-A*26:01 [9]; [23],4430 nM
same,Kd,HLA-A*31:01; [23],≥ 20 µM
same,Kd,HLA-A*69:01 [3]; [23],0.141 µM
same,Kd,HLA-B*07:02; [23],≥ 20 µM
same,Kd,HLA-B*08:01; [23],≥ 20 µM
same,Kd,HLA-B*15:01 [4]; [23],≥ 20 µM
same,Kd,HLA-B*27:05; [23],≥ 20 µM
same,Kd,HLA-B*35:01; [23],254 nM
same,Kd,HLA-B*40:01; [23],≥ 20 µM
same,Kd,HLA-B*44:02; [23],≥ 20 µM
same,Kd,HLA-B*58:01; [23],≥ 20 µM
IEFIEVVRL,Kd,HLA-A*01:01; [24],≥ 20 µM
same,Kd,HLA-A*02:01 [1]; [24],≥ 20 µM
same,Kd,HLA-A*11:01; [24],≥ 20 µM
same,Kd,HLA-A*26:01 [9]; [25],≥ 20000 nM
same,Kd,HLA-A*31:01; [24],≥ 20 µM
same,Kd,HLA-A*68:02,≥ 20 µM
same,Kd,HLA-A*69:01 [3]; [24],≥ 20 µM
same,Kd,HLA-B*07:02; [24],≥ 20 µM
same,Kd,HLA-B*15:09; [25],≥ 20000 nM
same,Kd,HLA-B*15:17 [10],≥ 20 µM
same,Kd,HLA-B*27:05; [24],≥ 20 µM
same,Kd,HLA-B*39:01 [6]; [25],≥ 20 µM
same,Kd,HLA-B*40:01; [24],0.0377 µM
same,Kd,HLA-B*44:02; [24],≥ 20 µM
same,Kd,HLA-B*48:01; [24],≥ 20 µM
same,Kd,HLA-B*57:01 [8]; [24],≥ 20 µM
same,Kd,HLA-B*58:01; [24],≥ 20 µM
MFKNFPFFK,Kd,HLA-A*02:03,≥ 20 µM
same,Kd,HLA-A*02:11,≥ 20 µM
same,Kd,HLA-A*02:12,≥ 20 µM
same,Kd,HLA-A*02:16,≥ 20 µM
same,Kd,HLA-A*02:19,≥ 20 µM
same,Kd,HLA-A*11:01; source organism: Bacillus cereus G9842,≤ 0.001 µM
same,Kd,HLA-A*02:01 [11]; [26],≥ 20 µM
same,Kd,HLA-A*26:01 [12],≥ 20 µM
same,Kd,HLA-B*15:17 [13],≥ 20 µM
same,Kd,HLA-B*18:01 [14],≥ 20 µM
same,Kd,HLA-B*27:03,≥ 20 µM
same,Kd,HLA-B*39:01 [15]; [26],≥ 20000 nM
same,Kd,HLA-B*46:01 [16],≥ 20 µM
same,Kd,HLA-B*51:01,≥ 20 µM
same,Kd,HLA-B*57:01 [17],≥ 20 µM
MMGIILSKY,Kd,HLA-A*29:02 [18],52 nM
SRAGISVVL,Kd,HLA-B*15:09; source organism: Salmonella enterica subsp. enterica serovar Typhimurium str. LT2,207 nM
same,Kd,HLA-B*39:01 [15]; source organism: Serratia marcescens,4.7 nM
YTDLTYQSF,Kd,HLA-A*01:01; source organism: Cowpox virus,0.019 µM
same,Kd,HLA-A*03:01; source organism: Cowpox virus,≥ 20 µM
same,Kd,HLA-A*11:01; source organism: Cowpox virus,≥ 20 µM
same,Kd,HLA-A*26:01 [9]; source organism: Variola virus,233 nM
same,Kd,HLA-A*31:01; source organism: Cowpox virus,≥ 20 µM
same,Kd,HLA-B*08:01; source organism: Variola virus,≥ 20 µM
same,Kd,HLA-B*15:09; source organism: Variola virus,≥ 20000 nM
same,Kd,HLA-B*27:05; source organism: Cowpox virus,≥ 20 µM
same,Kd,HLA-B*39:01 [6]; source organism: Variola virus,≥ 20 µM
same,Kd,HLA-B*40:01; source organism: Cowpox virus,≥ 20 µM
same,Kd,HLA-B*46:01 [7]; source organism: Cowpox virus,≥ 20 µM
same,Kd,HLA-B*48:01; source organism: Cowpox virus,≥ 20 µM
same,Kd,HLA-B*57:01 [8]; source organism: Cowpox virus,3.76 µM
same,Kd,HLA-B*58:01; source organism: Variola virus,0.083 µM
same,Kd,HLA-C*05:01,≤ 1 nM
same,Kd,HLA-A*02:01 [11]; source organism: Vaccinia virus Copenhagen,≥ 20 µM
same,Kd,HLA-A*69:01 [19],≥ 20 µM
same,Kd,HLA-B*15:01 [20],2640 nM
